Measurements reported in publication PMC7039449, “FMN-dependent oligomerization of putative lactate oxidase from Pediococcus acidilactici” (PLoS ONE, 2020).

Columns and labels:
PaLCTO = molecular target: T1, PaLCTO (Pediococcus acidilactici, UniProt E0NE46); test: X-ray crystallography, […] Å (refolded with FMN: 6RHS, […] Å); SEC; format: binding; conditions: FMN in active site; FMN addition turns apo monomer into tetramer
T1 construct: gene lctO; recombinant in E. coli, pNH-TrxT, N-terminal thioredoxin/His tag cut with TEV; 39 kDa monomer, FMN-containing homotetramer (158 kDa)
T1 sequence (E0NE46 1-369): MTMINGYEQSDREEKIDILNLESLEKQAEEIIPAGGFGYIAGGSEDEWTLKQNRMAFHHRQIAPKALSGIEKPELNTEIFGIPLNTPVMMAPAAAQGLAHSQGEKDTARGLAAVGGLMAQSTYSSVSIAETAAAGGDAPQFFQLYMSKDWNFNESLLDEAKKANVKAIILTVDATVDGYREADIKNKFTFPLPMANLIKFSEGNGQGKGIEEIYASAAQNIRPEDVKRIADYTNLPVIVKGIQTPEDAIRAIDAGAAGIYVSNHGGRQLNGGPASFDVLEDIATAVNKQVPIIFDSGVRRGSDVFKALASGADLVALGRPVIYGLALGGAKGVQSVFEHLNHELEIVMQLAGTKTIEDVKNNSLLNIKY

purified protein = substrate: C[C@H](O)C(=O)O; test: purified protein; conditions: pH 6.5 (DMGA buffer), 37 °C, FMN added, air, L-lactate 0.2-2.0 mM, in-house recombinant enzyme
[1] = molecular target: the molecule itself; test: SEC; recombinant AvLCTO, data not shown
[2] = molecular target: the molecule itself; test: SEC; analytical SEC of the yellow, FMN-containing fraction; Superdex 200 Increase 10/300 calibrated with Bio-Rad standards; 30 mM Hepes pH 7.5, 350 mM NaCl, 0.5 mM TCEP

Cc1cc2nc3c(=O)[nH]c(=O)nc-3n(C[C@H](O)[C@H](O)[C@H](O)COP(=O)(O)O)c2cc1C [FMN]
X-ray crystallography, 1.9 Å (refolded with FMN: 6RHS, 2.6 Å); SEC (PaLCTO): The hydrogen bonding network between FMN and the surrounding residues contains in total twelve interactions

B1: Aerococcus viridans lactate oxidase (enzyme)
chain: MNNNDIEYNAPSEIKYIDVVNTYDLEEEASKVVPHGGFNYIAGASGDEWTKRANDRAWKHKLLYPRLAQDVEAPDTSTEILGHKIKAPFIMAPIAAHGLAHTTKEAGTARAVSEFGTIMSISAYSGATFEEISEGLNGGPRWFQIYMAKDDQQNRDILDEAKSDGATAIILTADSTVSGNRDRDVKNKFVYPFGMPIVQRYLRGTAEGMSLNNIYGASKQKISPRDIEEIAGHSGLPVFVKGIQHPEDADMAIKRGASGIWVSNHGARQLYEAPGSFDTLPAIAERVNKRVPIVFDSGVRRGEHVAKALASGADVVALGRPVLFGLALGGWQGAYSVLDYFQKDLTRVMQLTGSQNVEDLKGLDLFDNPYGYEY
notes: L-lactate oxidase of Aerococcus viridans, cloned from genomic DNA of strain DSM 20340; also called AvLCTO; recombinant AvLCTO; source: E. coli BL21 (DE3), purified
Km (purified protein): 520 ± 50 µM
stoichiometry N [1]: 4

B2: Pediococcus acidilactici lactate oxidase (enzyme)
chain: MTMINGYEQSDREEKIDILNLESLEKQAEEIIPAGGFGYIAGGSEDEWTLKQNRMAFHHRQIAPKALSGIEKPELNTEIFGIPLNTPVMMAPAAAQGLAHSQGEKDTARGLAAVGGLMAQSTYSSVSIAETAAAGGDAPQFFQLYMSKDWNFNESLLDEAKKANVKAIILTVDATVDGYREADIKNKFTFPLPMANLIKFSEGNGQGKGIEEIYASAAQNIRPEDVKRIADYTNLPVIVKGIQTPEDAIRAIDAGAAGIYVSNHGGRQLNGGPASFDVLEDIATAVNKQVPIIFDSGVRRGSDVFKALASGADLVALGRPVIYGLALGGAKGVQSVFEHLNHELEIVMQLAGTKTIEDVKNNSLLNIKY
notes: putative L-lactate oxidase of Pediococcus acidilactici DSM 20284, Uniprot E0NE46; gene cloned from genomic DNA into pNH-TrxT; theoretical monomer mass 39 kDa; The same polypeptide without FMN (colourless fraction, or deflavinated) is a monomer that lacks secondary structure by CD; also called PaLCTO; WT PaLCTO; source: E. coli BL21 (DE3), purified (Ni-NTA, TEV cleavage, second Ni-NTA, SEC); not …
stoichiometry N [2]: 4
